Test results published in article doi:10.1101/2025.01.09.632221 (bioRxiv, 2025).

How the values were obtained:
[1] = target: sHcp-His6 (Bacteroides fragilis NCTC9343); experiment: SDS-PAGE
[2] = target: sHcp-His6 (Bacteroides fragilis NCTC9343); experiment: SEC
crystal structure = target: the molecule itself; experiment: crystal structure
Hcp2-His6 = target: T1, Hcp2-His6 (Bacteroides fragilis NCTC9343, UniProt A0A380Z0E1 1-135); experiment: pull-down
T1 sequence (looked up): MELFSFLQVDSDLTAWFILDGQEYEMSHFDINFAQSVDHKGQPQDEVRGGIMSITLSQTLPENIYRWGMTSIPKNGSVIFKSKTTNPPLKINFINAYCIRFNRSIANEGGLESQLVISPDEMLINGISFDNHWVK

sHcp-His6 (natural protein)
stoichiometry N [1]: 3
stoichiometry N [2]: 6

B1: C-terminal 6His-tagged Se-Met sHcp protein (natural protein, Bacteroides fragilis NCTC9343)
chain: MAFRATLSFAGKEFDVLDCTYSLKRDVDSKGRPSSNIYGGQIRLHVESTDDTSILENMTNQFKPHSGSIVFKKGDEEAKMKELTWENGYITEFTENIDIVGSQPMTITFVVSAQVIKIGGAQFEQNWPK
modifications: selenomethionine in place of methionine
stoichiometry N (crystal structure): 6

B2: Hcp1, untagged, co-expressed in E. coli BL21(DE3) (natural protein, Bacteroides fragilis NCTC9343, UniProt Q5LDT5 1-142, looked up)
chain: MFGHKSFLRIGALGDSSISGLYKDSYELENCHFSFNQGTNTDGKPQTDVRGGTLYLTYAGLPQDDMLRWILNSKKYEDGAIVICDDSDEPLEKILFEQAACTGLNIEYTQKGKAYIHTKIILQVRKIKVGETTFENRWTINE
stoichiometry N (Hcp2-His6): 2 Hcp1 per Hcp2 (printed as the ratio 4:2)
